# Test results published in the supplement of paper PMC11246515.
# ± gives the standard deviation of the averaged measurements.
# Assay: total protein half-life in vivo (active degradation + dilution); higher = more stable protein
# [1] = E. coli NCM3722 delta-clpP delta-lon delta-hslV, growth: N-lim chemostat, doubling time 6 h
# [2] = E. coli NCM3722 delta-clpP, growth: N-lim chemostat, doubling time 6 h
# [3] = E. coli NCM3722 delta-hslV, growth: N-lim chemostat, doubling time 6 h
# [4] = E. coli NCM3722 delta-lon, growth: N-lim chemostat, doubling time 6 h
# [5] = E. coli NCM3722 delta-smpB, growth: N-lim chemostat, doubling time 6 h
# [6] = wild type E. coli NCM3722, growth: C-lim chemostat, doubling time 3 h
# [7] = wild type E. coli NCM3722, growth: C-lim chemostat, doubling time 6 h
# [8] = wild type E. coli NCM3722, growth: C-lim chemostat, doubling time 12 h
# [9] = wild type E. coli NCM3722, growth: N-lim chemostat, doubling time 6 h
# [10] = wild type E. coli NCM3722, growth: N-lim chemostat, doubling time 12 h
# [11] = wild type E. coli NCM3722, growth: P-lim chemostat, doubling time 6 h
# [12] = wild type E. coli NCM3722, growth: P-lim chemostat, doubling time 12 h
Sequence,total protein half-life in vivo [1] [h],total protein half-life in vivo [2] [h],total protein half-life in vivo [3] [h],total protein half-life in vivo [4] [h],total protein half-life in vivo [5] [h],total protein half-life in vivo [6] [h],total protein half-life in vivo [7] [h],total protein half-life in vivo [8] [h],total protein half-life in vivo [9] [h],total protein half-life in vivo [10] [h],total protein half-life in vivo [11] [h],total protein half-life in vivo [12] [h]
MRLFIAEKPSLARAIADVLPKPHRKGDGFIECGNGQVVTWCIGHLLEQAQPDAYDSRYARWNLADLPIVPEKWQLQPRPSVTKQLNVIKRFLHEASEIVHAGDPDREGQLLVDEVLDYLQLAPEKRQQVQRCLINDLNPQAVERAIDRLRSNSEFVPLCVSALARARADWLYGINMTRAYTILGRNAGYQGVLSVGRVQTPVLGLVVRRDEEIENFVAKDFFEVKAHIVTPADERFTAIWQPSEACEPYQDEEGRLLHRPLAEHVVNRISGQPAIVTSYNDKRESESAPLPFSLSALQIEAAKRFGLSAQNVLDICQKLYETHKLITYPRSDCRYLPEEHFAGRHAVMNAISVHAPDLLPQPVVDPDIRNRCWDDKKVDAHHAIIPTARSSAINLTENEAKVYNLIARQYLMQFCPDAVFRKCVIELDIAKGKFVAKARFLAEAGWRTLLGSKERDEENDGTPLPVVAKGDELLCEKGEVVERQTQPPRHFTDATLLSAMTGIARFVQDKDLKKILRATDGLGTEATRAGIIELLFKRGFLTKKGRYIHSTDAGKALFHSLPEMATRPDMTAHWESVLTQISEKQCRYQDFMQPLVGTLYQLIDQAKRTPVRQFRGIVAPGSGGSADKKKAAPRKRSAKKSPPADEVGSGAIA,5.31 ± 0.35,2.48 ± 0.14,1.843 ± 0.0066,4.39 ± 0.75,1.97 ± 0.14,1.65 ± 0.098,3.12 ± 0.038,3.27 ± 0.57,2.32 ± 0.17,3.255 ± 0.0094,2.23 ± 0.41,4.46 ± 1.1
MRLFNWRRQAVLNAMPLVKPDQVRTPWHEFWRRFRRQHMAMTAALFVILLIVVAIFARWIAPYDAENYFDYDNLNNGPSLQHWFGVDSLGRDIFSRVLVGAQISLAAGVFAVFIGAAIGTLLGLLAGYYEGWWDRLIMRICDVLFAFPGILLAIAVVAVLGSGIANVIIAVAIFSIPAFARLVRGNTLVLKQQTFIESARSIGASDMTVLLRHILPGTVSSIVVFFTMRIGTSIISAASLSFLGLGAQPPTPEWGAMLNEARADMVIAPHVAVFPALAIFLTVLAFNLLGDGLRDALDPKIKG,–,6.63,6.48 ± 0.35,–,6.59 ± 0.99,3.08 ± 0.21,6.44 ± 0.14,13.6,6.817 ± 0.047,12.4 ± 1.2,6.55 ± 0.52,–
MRLLNRLNQYQRLWQPSAGKPQTVTVSELAERCFCSERHVRTLLRQAQEAGWLEWQAQSGRGKRGQLRFLVTPESLRNAMMEQALETGKQQDVLELAQLAPGELRTLLQPFMGGQWQNDTPTLRIPYYRPLEPLQPGFLPGRAEQHLAGQIFSGLTRFDNNTQRPIGDLAHHWETSTDGLRWDFYLRSTLHWHNGDAVKASHLHQRLLMLLQLPALDQLFISVKRIEVTHPQCLTFFLHRPDYWLAHRLASYCSHLAHPQFPLIGTGPFRLTQFTAELVRLESHDYYHLRHPLLKAVEYWITPPLFEKDLGTSCRHPVQITIGKPEELQRVSQVSSGISLGFCYLTLRKSPRLSLWQARKVISIIHQSGLLQTLEVGENLITASHALLPGWTIPHWQVPDEVKLPKTLTLVYHLPIELHTMAERLQATLAAEGCELTIIFHNAKNWDDTTLQAHADLMMGDRLIGEAPEYTLEQWLRCDPLWPHVFDAPAYAHLQSTLDAVQIMPDEENRFNALKAVFSQLMTDATLTPLFNYHYRISAPPGVNGVRLTPRGWFEFTEAWLPAPSQ,5.67,–,–,–,–,1.85 ± 0.39,3 ± 0.03,4.716 ± 0.0097,–,–,–,–
MRLLPLVAAATAAFLVVACSSPTPPRGVTVVNNFDAKRYLGTWYEIARFDHRFERGLEKVTATYSLRDDGGLNVINKGYNPDRGMWQQSEGKAYFTGAPTRAALKVSFFGPFYGGYNVIALDREYRHALVCGPDRDYLWILSRTPTISDEVKQEMLAVATREGFDVSKFIWVQQPGS [P0A901],5.85 ± 0.12,6.28 ± 0.6,5.56 ± 0.29,6.82 ± 0.84,5.8 ± 0.32,2.82 ± 0.082,5.41 ± 0.38,10.6 ± 2.6,5.78 ± 0.14,11.8 ± 1.4,5.43 ± 0.26,11.04 ± 0.072
MRLNPGQQQAVEFVTGPCLVLAGAGSGKTRVITNKIAHLIRGCGYQARHIAAVTFTNKAAREMKERVGQTLGRKEARGLMISTFHTLGLDIIKREYAALGMKANFSLFDDTDQLALLKELTEGLIEDDKVLLQQLISTISNWKNDLKTPSQAAASAIGERDRIFAHCYGLYDAHLKACNVLDFDDLILLPTLLLQRNEEVRKRWQNKIRYLLVDEYQDTNTSQYELVKLLVGSRARFTVVGDDDQSIYSWRGARPQNLVLLSQDFPALKVIKLEQNYRSSGRILKAANILIANNPHVFEKRLFSELGYGAELKVLSANNEEHEAERVTGELIAHHFVNKTQYKDYAILYRGNHQSRVFEKFLMQNRIPYKISGGTSFFSRPEIKDLLAYLRVLTNPDDDSAFLRIVNTPKREIGPATLKKLGEWAMTRNKSMFTASFDMGLSQTLSGRGYEALTRFTHWLAEIQRLAEREPIAAVRDLIHGMDYESWLYETSPSPKAAEMRMKNVNQLFSWMTEMLEGSELDEPMTLTQVVTRFTLRDMMERGESEEELDQVQLMTLHASKGLEFPYVYMVGMEEGFLPHQSSIDEDNIDEERRLAYVGITRAQKELTFTLCKERRQYGELVRPEPSRFLLELPQDDLIWEQERKVVSAEERMQKGQSHLANLKAMMAAKRGK,4.75 ± 0.66,3.564 ± 0.03,3.26 ± 0.39,3.59 ± 0.24,2.97 ± 0.12,2.89 ± 0.43,4.89 ± 0.71,6.36 ± 0.89,3.27 ± 0.52,4.74 ± 0.2,5.75 ± 0.71,8.39 ± 0.72
